Measured values published in patent US20260224621A1.

Legend:
[1] = biological target: CD20 on Raji lymphocyte cells and primary CLL cells (human) (UniProt P11836); assay: cell-based or functional assay
[2] = biological target: CD19 on Raji cells, primary CLL cells and melanoma cell lines made to overexpress CD19 (UniProt P15391); assay: cell-based or functional assay

| Substance | specific killing of Raji cells by YTS cells expressing CD16 (ADCC), 3 hours [1] | specific killing of Raji cells 24 hours after coculture, YTS CAR-CD19 cells (non-irradiated, 1000, 2500 or 3000 cGy) [2] | specific killing of Raji cells by YTS cells expressing CAR-CD19 [2] | specific killing of Raji cells, same day (2-3 hours), YTS CAR-CD19 cells irradiated with 1000 cGy [2] | specific killing of Raji cells, same day (2-3 hours), YTS CAR-CD19 cells irradiated with 2500 cGy [2] | specific killing of Raji cells, same day (2-3 hours), non-irradiated YTS CAR-CD19 cells [2] |
| --- | --- | --- | --- | --- | --- | --- |
| Rituximab (anti-CD20) (antibody) | > 60% |  |  |  |  |  |
| anti-CD19 CAR FMC63-28-3z (FMC63 scFV against CD19, CD28 costimulatory domain, CD3zeta signaling domain; Addgene #135991), expressed on YTS cells (from UniProt P10747 180-220; P20963 52-164) |  | > 55% | > 50% | 25% | 23% | 18% |
